B1: CBM3c module of Cel9I without the N-terminal linker, C-terminally His-tagged (domain or fragment)
chain: EVPEDEIFVEAGVNASGNNFIEIKAIVNNKSGWPARVCENLSFRYFINIEEIVNAGKSASDLQVSSSYNQGAKLSDVKHYKDNIYYVEVDLSGTKIYPGGQSAYKKEVQFRISAPEGTVFNPENDYSYQGLSAGTVVKSEYIPVYDAGVLVFGREP
modifications: one bound Ca2+ in the crystal. Limits are the crystallized untagged GH9 entity (466 aa, about 52 kDa as on SDS-PAGE). Paper residues 1-446 are entity 21-466 (offset +20, from Tyr440, Gly444 and end …)
B2: GH9 catalytic module of Cel9I from Clostridium thermocellum, untagged (domain or fragment)
chain: MENKNGGYLPEEEIPDQPPATGAFNYGEALQKAIFFYECQRSGKLDSSTLRLNWRGDSGLDDGKDAGIDLTGGWYDAGDHVKFNLPMSYSAAMLGWAVYEYEDAFKQSGQYNHILNNIKWACDYFIKCHPEKDVYYYQVGDGHADHAWWGPAEVMPMERPSYKVDRSSPGSTVVAETSAALAIASIIFKKVDGEYSKECLKHAKELFEFADTTKSDDGYTAANGFYNSWSGFYDELSWAAVWLYLATNDSSYLDKAESYSDKWGYEPQTNIPKYKWAQCWDDVTYGTYLLLARIKNDNGKYKEAIERHLDWWTTGYNGERITYTPKGLAWLDQWGSLRYATTTAFLACVYSDWENGDKEKAKTYLEFARSQADYALGSTGRSFVVGFGENPPKRPHHRTAHGSWADSQMEPPEHRHVLYGALVGGPDSTDNYTDDISNYTCNEVACDYNAGFVGLLAKMYKLYGEL
modifications: one bound Ca2+ in the crystal. Limits are the crystallized untagged GH9 entity (466 aa, about 52 kDa as on SDS-PAGE). Paper residues 1-446 are entity 21-466 (offset +20, from Tyr440, Gly444 and end …)

Key:
[1] = target: GH9 catalytic module of Cel9I from Clostridium thermocellum, N-terminally His-tagged (Clostridium thermocellum)
[2] = target: T1, GH9 catalytic module of Cel9I from Clostridium thermocellum, untagged (Clostridium thermocellum); assay: ITC; VP-ITC, 298 K; about 300 µM CBM3c injected into 65 µM GH9; 50 mM Tris-HCl pH 7.5, 150 mM NaCl, 0.05% sodium azide; one binding site model; CBM3c concentrations corrected to give a stoichiometry of one; two titrations; settings: both partners purified
T1 chain: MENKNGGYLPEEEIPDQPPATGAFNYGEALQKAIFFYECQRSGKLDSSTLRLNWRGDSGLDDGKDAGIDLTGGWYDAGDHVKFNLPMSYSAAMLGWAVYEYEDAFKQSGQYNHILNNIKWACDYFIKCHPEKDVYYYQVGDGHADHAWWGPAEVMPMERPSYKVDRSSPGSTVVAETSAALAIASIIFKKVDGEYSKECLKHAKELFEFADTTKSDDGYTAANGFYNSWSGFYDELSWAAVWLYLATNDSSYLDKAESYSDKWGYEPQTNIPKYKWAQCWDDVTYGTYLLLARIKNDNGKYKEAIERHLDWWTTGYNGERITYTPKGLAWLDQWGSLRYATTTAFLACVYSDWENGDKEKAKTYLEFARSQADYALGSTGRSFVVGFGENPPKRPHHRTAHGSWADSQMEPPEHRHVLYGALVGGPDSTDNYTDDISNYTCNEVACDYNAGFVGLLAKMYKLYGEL

[3] = target: T2, CBM3c module of Cel9I with its adjacent N-terminal linker, C-terminally His-tagged (Clostridium thermocellum, UniProt Q02934 54-516); assay: as above; settings: both partners purified
T2 construct: Cloning is described in Burstein et al., 2009 and Gilad et al., 2003; also called CBM3cL; CBM3c with linker; source: E. coli BL21(DE3)RIL, purified (Ni-IDA); not shown: His tag, C-terminal, kept
T2 sequence: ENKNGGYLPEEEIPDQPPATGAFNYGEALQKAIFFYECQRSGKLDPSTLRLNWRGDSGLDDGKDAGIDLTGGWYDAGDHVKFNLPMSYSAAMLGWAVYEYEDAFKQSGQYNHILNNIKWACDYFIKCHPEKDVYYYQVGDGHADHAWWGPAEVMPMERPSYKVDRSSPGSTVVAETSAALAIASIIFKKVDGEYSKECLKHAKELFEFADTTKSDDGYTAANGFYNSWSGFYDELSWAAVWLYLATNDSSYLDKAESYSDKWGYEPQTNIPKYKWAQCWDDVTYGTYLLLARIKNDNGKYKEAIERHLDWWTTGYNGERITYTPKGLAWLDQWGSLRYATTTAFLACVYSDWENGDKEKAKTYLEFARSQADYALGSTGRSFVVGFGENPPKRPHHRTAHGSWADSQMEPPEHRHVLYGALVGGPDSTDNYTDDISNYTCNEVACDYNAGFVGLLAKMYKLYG

Binder | CMCase activity (reducing sugar released in 10 min, 333 K, pH 6.0) of 70 pmol His-tagged GH9 mixed with increasing amounts of CBM3cNL, relative to intact Cel9I set as 100% (% of intact Cel9I activity) [1] | Kd [2] | Kd [3]
B1 | 10 | 290 to 430 nM | –
B2 | – | – | 1300 to 2000 nM

Source: PMC4579020, “Reassembly and co-crystallization of a family 9 processive endoglucanase from its component parts: structural and functional significance of the intermodular linker” (PeerJ, 2015)
